Key:
thrombin [1] = target: T1, thrombin (UniProt P00734;P00734 328-363;364-622); assay: PAGE and FAM/BHQ1 fluorescence (release of strand D); Mg2+; indirect read-out; complexes annealed in 1x TAE/Mg2+ buffer, DNA complex about 0.5-0.6 uM; thrombin trigger 2 h at room temperature (cell experiments); pH and Mg2+ concentration n
thrombin [2] = target: T1, thrombin; assay: PAGE and fluorescence (release of strand D); Mg2+; indirect read-out; complexes annealed in 1x TAE/Mg2+ buffer, DNA complex about 0.5-0.6 uM; thrombin trigger 2 h at room temperature (cell experiments); pH and Mg2+ concentration n
thrombin [3] = target: T1, thrombin; assay: PAGE (release of DGFP); Mg2+; indirect read-out; complexes annealed in 1x TAE/Mg2+ buffer, DNA complex about 0.5-0.6 uM; thrombin trigger 2 h at room temperature (cell experiments); pH and Mg2+ concentration n

B1: complex CDAB (15Apt and 29Apt thrombin aptamers on B and A) (structured_DNA)
DNA 1: AATGGTCCTATGATTCCGTTTTTTTTTTTTGTCACTAGCTACTAGGTAGCTAGTGACGTTATTTTTTTTATGAGAGAGAGTGTGTCC
DNA 2: TAACGTCACTAGCTACCTTTTTTTTTTTTTTTTTTTTTTTTTTTTTTTTTTTTTTTT
DNA 3: GGACACACTCTCTCTCATTTTAGTCCGTGGTAGGGCAGGTTGGGGTGACT
DNA 4: GGTTGGTGTGGTTGGTTTCGGAATCATAGGACCATT
B1: binds (thrombin [1]).

B2: single-trigger-site complex with E-29apt (structured_DNA)
DNA 1: AATGGTCCTATGATTCCGTTTTTTTTTTTTGTCACTAGCTACTAGGTAGCTAGTGACGTTATTTTTTTTATGAGAGAGAGTGTGTCC
DNA 2: TAACGTCACTAGCTACCTTTTTTTTTTTTTTTTTTTTTTTTTTTTTTTTTTTTTTTT
DNA 3: GGACACACTCTCTCTCATTTTAGTCCGTGGTAGGGCAGGTTGGGGTGACTTTTCGGAATCATAGGACCATT
B2: binds (thrombin [2]).

B3: complex-G C3DGFPAB (T1 3 nt, T2 12 nt) (structured_DNA)
DNA 1: AATGGTCCTATGATTCCGTTTTTTTTTTTTTGCACGCTGCCGTTACGGCAGCGTGCAGCTCTTTTTTTTATGAGAGAGAGTGTGTCC
DNA 2: GAGCTGCACGCTGCCGTCTTTTTTTTTTTTTTTTTTTTTTTTTTTTTTTTTTTTTTTTT
DNA 3: GGACACACTCTCTCTCATTTTAGTCCGTGGTAGGGCAGGTTGGGGTGACT
DNA 4: GGTTGGTGTGGTTGGTTTCGGAATCATAGGACCATT
B3: binds (thrombin [3]).
